Several values for one entry are separate records, joined by “and”; a condition that tells them apart may be missing. Equal entries are not always repeated. Where two headings read alike, the source gives them in different places. One block for each molecule: values may come before it.
What was measured:
‘hu’ GHBP = biological target: T1, ‘hu’ GHBP (Rattus norvegicus, UniProt P16310, L61R); assay: Species specificity of binding by ELISA and BIAcore, 'hu' GHBP; conditions: in words
T1 construct: 1–48 of GHBP; The 3′ oligo used for this reaction encoded the mutation L43R (CTG→AGA); The second PCR reaction amplified the DNA encoding amino acids 38–260; 6xHis; made in house
T1 sequence (P16310 19-278 isoform P16310-2 L61R): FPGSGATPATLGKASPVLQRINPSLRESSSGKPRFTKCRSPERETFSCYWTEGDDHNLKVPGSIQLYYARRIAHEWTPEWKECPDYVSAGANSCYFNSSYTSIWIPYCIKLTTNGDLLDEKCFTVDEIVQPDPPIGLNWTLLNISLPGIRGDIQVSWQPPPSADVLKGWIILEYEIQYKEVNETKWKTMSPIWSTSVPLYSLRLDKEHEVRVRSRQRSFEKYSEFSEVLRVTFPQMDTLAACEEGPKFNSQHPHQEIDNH
Procedure: Wells were coated with either recombinant rGHBP or ‘hu’ GHBP (100 ng/well). Additions of H5 (SEQ ID NO:8) and H10 (SEQ ID NOS:9, 80, and 81) phage (10^10/well) and detection were made as described. […] Streptavidin chips were coated with H5 (SEQ ID NO:8) to 1100 RU as described and rGHBP or ‘hu’ GHBP (500 μg/ml) injected as 30 μl samples.
Growth hormone receptors from different species bind human GH as well as their own GH, however human GHR only binds human or monkey GH. […] The sequence of rGHBP was altered by PCR to create a “humanized” version (‘hu’ GHBP; FIG. 9A). Partially purified ‘hu’GHBP (FIG. 9B) was tested for binding using ELISA and BIAcore analysis. […] This was confirmed by BIAcore analysis (FIG. 10B).
The biotinylated control peptide (SEQ ID NO:10) was immobilized onto one flow cell of a SA-5 (streptavidin coated) sensor chip to a final density of 700 RU. On a second flow cell, either hGH (1100 RU final density), H5WT peptide (SEQ ID NO:8; 1100 RU final density), or bGH (730 RU final density) was immobilized. GHBP (either rat or humanized) was injected at a concentration of 500 μg/ml with a flow rate of 5 μl/min. Background binding to the control surface was subtracted prior to further analysis.

rGHBP = biological target: T2, rGHBP (Rattus norvegicus, UniProt P16310); assay: Time-resolved fluorometric detection (TRFD) of specific bLigand binding to rGHBP and its competition; conditions: TRFD; for IC50: competitor added 1 hr before bLigand
T2 construct: 1–48 of GHBP; The 3′ oligo used for this reaction encoded the mutation L43R (CTG→AGA); The second PCR reaction amplified the DNA encoding amino acids 38–260; 6xHis; made in house
T2 sequence (P16310 19-278 isoform P16310-2): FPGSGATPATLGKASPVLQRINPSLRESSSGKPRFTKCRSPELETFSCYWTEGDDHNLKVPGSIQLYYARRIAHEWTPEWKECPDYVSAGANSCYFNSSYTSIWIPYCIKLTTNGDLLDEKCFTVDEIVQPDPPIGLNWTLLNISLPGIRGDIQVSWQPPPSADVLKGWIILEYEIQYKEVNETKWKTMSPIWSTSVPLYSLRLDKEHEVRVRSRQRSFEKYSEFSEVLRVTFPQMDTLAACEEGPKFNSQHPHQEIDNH
Procedure: For this invention, saEu forms a ternary complex with bP and rGHBP (i.e., the rGHBP:bP:saEu complex). As described herein, the TRFD assay is performed using biotinylated GH (bGH) as bLigand. Biotinylated H5-mutant peptides bP#447 (SEQ ID NO:11) and bP#418 (SEQ ID NO:12) are also used as bLigand (see below). The TRFD assay described herein faithfully reports the competition of ligand binding to the active site of rGHR. To perform the TRFD assays, soluble rGHBP is attached to the surface of microtiter wells, then incubated with bP. Unbound bP is than washed away and (sa)Eu is added to complex with receptor bound bP. The rGHBP:bP bound (sa)Eu is then converted into its highly fluorescent state and detected by TRFD.
Wells were coated with rGHBP(100 ng/well) overnight as described. ED50 and IC50 were calculated from analysis of specific bLigand binding to rGHBP. Competitors were added 1 hr prior to addition of bLigand as described.
rGHBP (50–200 μg/ml in 50 mM NaHCO3) was coated onto low-fluorescence MaxiSorp (Nunc) plates (100 μl/well) overnight at 4° C. The plates were blocked with PBS containing 2% non-fat milk and 0.05% BSA for 2 hr at room temperature, followed by three PBS washes. For competitions, serial dilutions of unlabelled growth hormone (0.1 nM-100 nM) or MAb 2C3 (0.67–67 nM) were added to the plates (100 μl/well) and incubated at room temperature for 1–2 hr. Biotinylated peptide or biotinylated GH (10× concentrations) were incubated in blocking buffer for 30 min to decrease non-specific binding. Ten microliters of the 10× concentrated material was added to the plates and incubated at room temperature for 1 hr to overnight.
The plates were then washed five times with Tris-buffered saline (pH 7.5) containing 0.1% Tween-20 (TTBS). To each well, 100 μl of europium-labeled streptavidin in DELFIA assay buffer (100 mM Tris-HCl, pH 7.8; 150 mM NaCl; 0.5% BSA; 0.05% bovine Ig; 0.05% NaN3; 0.01% Tween-20) was added and incubated for 1.5 hr at room temperature. The plates were then washed five times with TTBS and tapped dry. Subsequently, 100 μl of DELFIA enhancement solution (100 mM acetone-potassium hydrogen phthalate, pH 3.2; 15 mM 2-naphtyltrifluoroacetate; […] tri(n-octyl)-phosphine oxide; 0.1% Triton X-100) was added to each well, and the plates were shaken for 10 min at room temperature. Fluorescence of each sample well was measured at 615 nm using a DELFIA 1234 fluorometer (EG&G Wallac). General procedure and references as described by Wallac are available in “Lanthanide labeling for time-resolved fluorometry”: Wallac publication 1244–1126-03.

binding to ‘hu’ GHBP (‘hu’ GHBP): failed to bind
B1: bovine GH: bovine growth hormone (protein)
chain: AFPAMSLSGLFANAVLRAQHLHQLAADTFKEFERTYIPEGQRYSIQNTQVAFCFSETIPAPTGKNEAQQKSDLELLRISLLLIQSWLGPLQFLSRVFTNSLVFGTSDRVYEKLKDLEEGILALMRELEDGTPRAGQILKQTYDKFDTNMRSDDALLKNYGLLSCFRKDLHKTETYLRVMKCRRFGEASCAF

IC50 (rGHBP; competition of bGH (2 nM) binding, read-out: IC50 vs. bGH): 5 nM
IC50 (rGHBP; competition of bP#418 (300 nM) binding, read-out: IC50 vs. bP#418 (SEQ ID NO: 12)): 2 nM
IC50 (rGHBP; competition of bP#447 (300 nM) binding, read-out: IC50 vs. bP#447 (SEQ ID NO: 11)): 0.4 nM
B2: GH: non-biotinylated growth hormone, the cognate ligand of GHBP (protein, UniProt P01244 27-216, looked up)
Somatotropin: FPAMPLSSLFANAVLRAQHLHQLAADTYKEFERAYIPEGQRYSIQNAQAAFCFSETIPAPTGKEEAQQRTDMELLRFSLLLIQSWLGPVQFLSRIFTNSLMFGTSDRVYEKLKDLEEGIQALMQELEDGSPRIGQILKQTYDKFDANMRSDDALLKNYGLLSCFKKDLHKAETYLRVMKCRRFAESSCAF

binding to ‘hu’ GHBP (‘hu’ GHBP): failed to bind
B3: rat GH: rat growth hormone (protein, UniProt P01244 27-216, looked up)
Somatotropin: FPAMPLSSLFANAVLRAQHLHQLAADTYKEFERAYIPEGQRYSIQNAQAAFCFSETIPAPTGKEEAQQRTDMELLRFSLLLIQSWLGPVQFLSRIFTNSLMFGTSDRVYEKLKDLEEGIQALMQELEDGSPRIGQILKQTYDKFDANMRSDDALLKNYGLLSCFKKDLHKAETYLRVMKCRRFAESSCAF

EC50 (rGHBP; wells coated with rGHBP 100 ng/well, read-out: ED50 (half-maximum specific binding)): ~20 nM and 20 nM
B4: bGH: biotinylated GH used as bLigand in the TRFD assay (protein, UniProt P01244 27-216, looked up)
Somatotropin: FPAMPLSSLFANAVLRAQHLHQLAADTYKEFERAYIPEGQRYSIQNAQAAFCFSETIPAPTGKEEAQQRTDMELLRFSLLLIQSWLGPVQFLSRIFTNSLMFGTSDRVYEKLKDLEEGIQALMQELEDGSPRIGQILKQTYDKFDANMRSDDALLKNYGLLSCFKKDLHKAETYLRVMKCRRFAESSCAF
modifications: biotin
notes: biotinylated GH used as bLigand in the TRFD assay

— US7148193B2, “Compounds that bind to growth hormone receptor” (Antyra, Inc., priority 1997, dated 2006)
